We go through 19 molecules from patent US20050256058A1 (GEORGIA TECH RESEARCH, published 2005).

Assay in all cases: cell-based or functional assay
One assay addresses T1, Caspase-2 (UniProt P42575 170-452, limits assumed).
T1 sequence (looked up): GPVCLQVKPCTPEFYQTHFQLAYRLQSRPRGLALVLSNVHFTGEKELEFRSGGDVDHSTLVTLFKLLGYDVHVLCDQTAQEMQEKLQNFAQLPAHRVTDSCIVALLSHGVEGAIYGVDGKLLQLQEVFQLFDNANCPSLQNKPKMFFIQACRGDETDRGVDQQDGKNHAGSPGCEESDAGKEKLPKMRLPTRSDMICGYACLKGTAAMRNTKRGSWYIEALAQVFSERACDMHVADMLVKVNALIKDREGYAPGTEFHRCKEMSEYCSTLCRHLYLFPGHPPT

The next assay addresses T2, Caspase-3 (UniProt P42574 29-277).
T2 sequence (looked up): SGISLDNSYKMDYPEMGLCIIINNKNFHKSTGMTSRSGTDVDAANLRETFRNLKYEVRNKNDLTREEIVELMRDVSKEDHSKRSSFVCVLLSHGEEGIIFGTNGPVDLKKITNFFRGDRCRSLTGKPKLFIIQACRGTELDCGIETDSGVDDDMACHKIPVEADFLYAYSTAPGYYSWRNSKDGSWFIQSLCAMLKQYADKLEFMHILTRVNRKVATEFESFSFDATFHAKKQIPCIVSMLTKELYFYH

The target in a further assay is T3, Caspase-6 (UniProt P55212 24-293, limits assumed).
T3 sequence (looked up): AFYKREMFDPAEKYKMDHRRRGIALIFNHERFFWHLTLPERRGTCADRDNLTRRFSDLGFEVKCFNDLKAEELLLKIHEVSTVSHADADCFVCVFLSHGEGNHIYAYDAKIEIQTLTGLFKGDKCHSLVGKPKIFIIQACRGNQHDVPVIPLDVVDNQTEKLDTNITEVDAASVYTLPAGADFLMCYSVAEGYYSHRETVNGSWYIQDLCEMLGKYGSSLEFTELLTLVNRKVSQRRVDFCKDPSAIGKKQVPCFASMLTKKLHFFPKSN

The target of another assay is T4, Caspase-7 (UniProt P55210 24-303).
T4 sequence (looked up): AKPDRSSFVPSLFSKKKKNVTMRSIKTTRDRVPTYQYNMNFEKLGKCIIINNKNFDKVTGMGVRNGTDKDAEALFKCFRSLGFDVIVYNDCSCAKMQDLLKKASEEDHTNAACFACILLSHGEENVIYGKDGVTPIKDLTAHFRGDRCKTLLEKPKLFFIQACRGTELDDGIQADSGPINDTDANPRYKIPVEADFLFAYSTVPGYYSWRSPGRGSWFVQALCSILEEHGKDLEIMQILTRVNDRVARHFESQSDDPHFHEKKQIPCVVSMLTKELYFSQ

In another assay the target is Caspase-8 (UniProt Q14790 217-479).
Another assay concerns the target T5, Caspase-10 (UniProt Q92851 220-521, limits assumed).
T5 sequence (looked up): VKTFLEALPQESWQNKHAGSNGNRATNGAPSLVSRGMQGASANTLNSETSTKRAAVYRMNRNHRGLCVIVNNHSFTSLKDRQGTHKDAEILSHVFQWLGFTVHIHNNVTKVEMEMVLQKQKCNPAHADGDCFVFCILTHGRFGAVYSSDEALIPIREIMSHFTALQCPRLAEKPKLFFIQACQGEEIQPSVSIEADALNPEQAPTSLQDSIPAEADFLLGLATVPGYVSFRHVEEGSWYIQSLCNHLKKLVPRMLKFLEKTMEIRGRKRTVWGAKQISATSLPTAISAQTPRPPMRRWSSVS

For another assay, the target named is T6, Caspase-9 (UniProt P55211 1-416, limits assumed).
T6 sequence (looked up): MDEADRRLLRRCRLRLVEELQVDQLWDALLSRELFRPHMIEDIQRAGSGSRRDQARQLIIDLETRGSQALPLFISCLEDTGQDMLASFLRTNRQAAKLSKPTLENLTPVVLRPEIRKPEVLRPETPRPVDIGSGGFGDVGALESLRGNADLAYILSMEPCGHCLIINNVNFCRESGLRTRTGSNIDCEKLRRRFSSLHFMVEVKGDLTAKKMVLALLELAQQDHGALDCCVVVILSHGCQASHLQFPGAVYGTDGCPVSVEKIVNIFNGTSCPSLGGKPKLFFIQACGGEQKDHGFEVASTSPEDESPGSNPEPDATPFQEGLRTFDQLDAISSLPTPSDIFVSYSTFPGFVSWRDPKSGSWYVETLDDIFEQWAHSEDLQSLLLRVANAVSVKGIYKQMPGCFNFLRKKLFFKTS

Numbered stars: 1 amine (or outer) side, 2 acyl side, 3 side chain; on linkers, the order of the positions; unused ones are H or OH. Square brackets hold non-standard residues; d marks the D form. * marks the point of attachment. CH═CH‑CON(CH3)CH2CH2Ph = CN(CCc1ccccc1)C(=O)/C=C/*; AAsp = aza-Asp, O=C(N(CC(=O)[*:3])N[*:1])[*:2]; CH═CH‑CON(CH3)CH2Ph = CN(Cc1ccccc1)C(=O)/C=C/*; CH═CH‑COOCH2Ph = O=C(/C=C/*)OCc1ccccc1; CH═CH‑COOEt = CCOC(=O)/C=C/*; Cbz = O=C(OCc1ccccc1)*

Sequence of Caspase-8 (Q14790 217-479 limits assumed): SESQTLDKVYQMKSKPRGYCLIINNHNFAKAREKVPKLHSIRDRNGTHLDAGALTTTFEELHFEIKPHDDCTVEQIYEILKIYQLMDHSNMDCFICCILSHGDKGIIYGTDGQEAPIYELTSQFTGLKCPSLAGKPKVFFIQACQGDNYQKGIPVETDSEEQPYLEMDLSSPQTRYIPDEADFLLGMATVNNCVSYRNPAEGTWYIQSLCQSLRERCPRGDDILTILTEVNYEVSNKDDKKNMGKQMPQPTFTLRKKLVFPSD

B1: Cbz-Leu-Glu-Thr-AAsp-CH═CH-COOCH2Ph (peptide)
peptide: Cbz-LET[AAsp]-{CH═CH‑COOCH2Ph}
SMILES: CC(C)C[C@H](NC(=O)OCc1ccccc1)C(=O)N[C@@H](CCC(=O)O)C(=O)N[C@H](C(=O)NN(CC(=O)O)C(=O)/C=C/C(=O)OCc1ccccc1)[C@@H](C)O
On to B1, for which the k2 with Caspase-2 was 480 M⁻¹ s⁻¹; with Caspase-3 it was 4600 M⁻¹ s⁻¹; with Caspase-6, 47600 M⁻¹ s⁻¹; in the assay with Caspase-7, 1570 M⁻¹ s⁻¹; with Caspase-8, 98400 M⁻¹ s⁻¹; with Caspase-10 it was 18900 M⁻¹ s⁻¹.

B2: Cbz-Leu-Glu-Thr-AAsp-CH═CH-CONHPh (peptide)
peptide: Cbz-LET[AAsp]-{CH═CH‑CONHPh}
On to B2, for which the k2 in the assay with Caspase-2 came out at 290 M⁻¹ s⁻¹; in the assay with Caspase-3, 4700 M⁻¹ s⁻¹; with Caspase-6, 11400 M⁻¹ s⁻¹; with Caspase-7, 730 M⁻¹ s⁻¹; with Caspase-8, 176000 M⁻¹ s⁻¹; with Caspase-9 it was 1190 M⁻¹ s⁻¹. In the assay with Caspase-10, this molecule showed a k2 of 6050 M⁻¹ s⁻¹.

B3: Cbz-Asp-Glu-Val-AAsp-CH═CH-COPh (peptide)
peptide: Cbz-DEV[AAsp]-{CH═CH‑COPh}
As for B3, the k2 with Caspase-2 came out at 165 M⁻¹ s⁻¹; in the assay with Caspase-3, 122000 M⁻¹ s⁻¹; in the assay with Caspase-6, 1800 M⁻¹ s⁻¹; with Caspase-7 it was 10800 M⁻¹ s⁻¹; with Caspase-8 it was 9720 M⁻¹ s⁻¹; with Caspase-10, 930 M⁻¹ s⁻¹.

B4: Cbz-Val-AAsp-CH═CH-CH═CH-CH3 (peptide)
peptide: Cbz-Val-[AAsp]-{CH═CH‑CH═CH‑CH3}
In the assay with Caspase-7, B4 gave a k2 of 56 M⁻¹ s⁻¹.

B5: Cbz-Leu-Glu-Thr-AAsp-CH═CH-CONHCH2-4-F-Ph (peptide)
peptide: Cbz-LET[AAsp]-{CH═CH‑CONHCH2‑4‑F‑Ph}
As for B5, the k2 with Caspase-2 is 70 M⁻¹ s⁻¹; in the assay with Caspase-3 it was 4490 M⁻¹ s⁻¹; with Caspase-6, 3100 M⁻¹ s⁻¹; with Caspase-7, 410 M⁻¹ s⁻¹; with Caspase-8, 171000 M⁻¹ s⁻¹; in the assay with Caspase-9, 1700 M⁻¹ s⁻¹. The k2 in the assay with Caspase-10 came out at 9380 M⁻¹ s⁻¹.

B6: Cbz-Asp-Glu-Val-AAsp-CH═CH-COOEt (cis) (peptide)
peptide: Cbz-DEV[AAsp]-{cis‑CH═CH‑COOEt}
Regarding B6, the k2 with Caspase-2 amounted to 26200 M⁻¹ s⁻¹; in the assay with Caspase-3 it was 1.06e+06 M⁻¹ s⁻¹; in the assay with Caspase-6, 11000 M⁻¹ s⁻¹; with Caspase-7 it was 139000 M⁻¹ s⁻¹; with Caspase-8 it was 181000 M⁻¹ s⁻¹; in the assay with Caspase-10, 13500 M⁻¹ s⁻¹.

B7: Cbz-Glu-Val-AAsp-CH═CH-COOEt (peptide)
peptide: Cbz-Glu-Val-[AAsp]-{CH═CH‑COOEt}
SMILES: CCOC(=O)/C=C/C(=O)N(CC(=O)O)NC(=O)[C@@H](NC(=O)[C@H](CCC(=O)O)NC(=O)OCc1ccccc1)C(C)C
Consider B7, for which the k2 stood at 90 M⁻¹ s⁻¹ in the assay with Caspase-2; 38600 M⁻¹ s⁻¹ in the assay with Caspase-3; 3540 M⁻¹ s⁻¹ in the assay with Caspase-6; 52400 M⁻¹ s⁻¹ in the assay with Caspase-7; 8940 M⁻¹ s⁻¹ with Caspase-10.

B8: Cbz-Leu-Glu-Thr-AAsp-CH═CH-CONHCH2Ph (peptide)
peptide: Cbz-LET[AAsp]-{CH═CH‑CONHCH2Ph}
For the molecule B8, the k2 in the assay with Caspase-2 worked out at 66 M⁻¹ s⁻¹; with Caspase-3, 1120 M⁻¹ s⁻¹; with Caspase-6, 1550 M⁻¹ s⁻¹; with Caspase-7 it was 340 M⁻¹ s⁻¹; with Caspase-8 it was 70200 M⁻¹ s⁻¹; in the assay with Caspase-9, 1400 M⁻¹ s⁻¹. The molecule also displayed a k2 with Caspase-10 of 14400 M⁻¹ s⁻¹.

B9: Cbz-Val-AAsp-CH═CH-COOEt (peptide)
peptide: Cbz-Val-[AAsp]-{CH═CH‑COOEt}
Take B9: the k2 with Caspase-3 was 8000 M⁻¹ s⁻¹; with Caspase-7 it was 2680 M⁻¹ s⁻¹; with Caspase-9, 5240 M⁻¹ s⁻¹; with Caspase-10, 389 M⁻¹ s⁻¹.

B10: Cbz-Val-AAsp-CH═CH-CONH-nBu (peptide)
peptide: Cbz-Val-[AAsp]-{CH═CH‑CONH‑nBu}
With B10, the values for the k2 with Caspase-3, with Caspase-7 and with Caspase-9 were 184 M⁻¹ s⁻¹, 55 M⁻¹ s⁻¹ and 32 M⁻¹ s⁻¹, respectively.

B11: Cbz-Asp-Glu-Val-AAsp-CH═CH-CON(CH3)CH2CH2Ph (peptide)
peptide: Cbz-DEV[AAsp]-{CH═CH‑CON(CH3)CH2CH2Ph}
SMILES: CC(C)[C@H](NC(=O)[C@H](CCC(=O)O)NC(=O)[C@H](CC(=O)O)NC(=O)OCc1ccccc1)C(=O)NN(CC(=O)O)C(=O)/C=C/C(=O)N(C)CCc1ccccc1
For B11, the k2 in the assay with Caspase-2 is 320 M⁻¹ s⁻¹; with Caspase-3, 1.18e+06 M⁻¹ s⁻¹; with Caspase-6, 4000 M⁻¹ s⁻¹; in the assay with Caspase-7, 172000 M⁻¹ s⁻¹; in the assay with Caspase-8, 31900 M⁻¹ s⁻¹; with Caspase-9, 425 M⁻¹ s⁻¹. The k2 in the assay with Caspase-10 worked out at 9570 M⁻¹ s⁻¹.

B12: Cbz-Leu-Glu-Thr-AAsp-CH═CH-CONHCH2CH2Ph (peptide)
peptide: Cbz-LET[AAsp]-{CH═CH‑CONHCH2CH2Ph}
In the case of B12, the k2 was 110 M⁻¹ s⁻¹ in the assay with Caspase-2; 5400 M⁻¹ s⁻¹ with Caspase-3; 2150 M⁻¹ s⁻¹ with Caspase-6; 440 M⁻¹ s⁻¹ with Caspase-7; 121000 M⁻¹ s⁻¹ with Caspase-8; 1760 M⁻¹ s⁻¹ with Caspase-9. In the assay with Caspase-10, this molecule registered a k2 of 17900 M⁻¹ s⁻¹.

B13: Cbz-Asp-Glu-Val-AAsp-CH═CH-CON-tetrahydroquinoline (peptide)
peptide: Cbz-DEV[AAsp]-{CH═CH‑CO‑tetrahydroquinoline}
As for B13, the k2 in the assay with Caspase-2 came out at 390 M⁻¹ s⁻¹; with Caspase-3, 2.3e+06 M⁻¹ s⁻¹; with Caspase-6, 5700 M⁻¹ s⁻¹; with Caspase-7, 137000 M⁻¹ s⁻¹; with Caspase-8 it was 118000 M⁻¹ s⁻¹; in the assay with Caspase-9, 340 M⁻¹ s⁻¹. Besides, in the assay with Caspase-10, the k2 stood at 8330 M⁻¹ s⁻¹.

B14: Cbz-Val-AAsp-CH═CH-Cl (peptide)
peptide: Cbz-Val-[AAsp]-{CH═CH‑Cl}
modifications: also: cis isomer
In the assay with Caspase-9, B14 displayed a k2 of 15 M⁻¹ s⁻¹.

B15: Cbz-Asp-Glu-Val-AAsp-CH═CH-CON(CH3)CH2Ph (peptide)
peptide: Cbz-DEV[AAsp]-{CH═CH‑CON(CH3)CH2Ph}
SMILES: CC(C)[C@H](NC(=O)[C@H](CCC(=O)O)NC(=O)[C@H](CC(=O)O)NC(=O)OCc1ccccc1)C(=O)NN(CC(=O)O)C(=O)/C=C/C(=O)N(C)Cc1ccccc1
Take B15: the k2 in the assay with Caspase-2 stood at 660 M⁻¹ s⁻¹; with Caspase-3, 2.64e+06 M⁻¹ s⁻¹; with Caspase-6, 9500 M⁻¹ s⁻¹; with Caspase-7, 275000 M⁻¹ s⁻¹; with Caspase-8, 90300 M⁻¹ s⁻¹; with Caspase-9, 820 M⁻¹ s⁻¹. Also, in the assay with Caspase-10, the k2 is 29400 M⁻¹ s⁻¹.

B16: Cbz-Asp-Glu-Val-AAsp-CH═CH-CON(CH2-1-Napth)2 (peptide)
peptide: Cbz-DEV[AAsp]-{CH═CH‑CON(CH2-1-Napth)2}
With B16, the k2 with Caspase-2 came to 410 M⁻¹ s⁻¹; in the assay with Caspase-3, 5.62e+06 M⁻¹ s⁻¹; in the assay with Caspase-6, 29700 M⁻¹ s⁻¹; with Caspase-7 it was 875000 M⁻¹ s⁻¹; in the assay with Caspase-8, 9460 M⁻¹ s⁻¹; with Caspase-9 it was 150 M⁻¹ s⁻¹. For the same molecule, in the assay with Caspase-10, the k2 worked out at 32500 M⁻¹ s⁻¹.

B17: Cbz-Val-AAsp-CH═CH-CONHCH2Ph (peptide)
peptide: Cbz-Val-[AAsp]-{CH═CH‑CONHCH2Ph}
Regarding B17, the k2 with Caspase-3 is 185 M⁻¹ s⁻¹; with Caspase-7, 60 M⁻¹ s⁻¹; in the assay with Caspase-9 it was 20 M⁻¹ s⁻¹.

B18: Cbz-Val-AAsp-CH═CH-4-Cl-Ph (peptide)
peptide: Cbz-Val-[AAsp]-{CH═CH‑4‑Cl‑Ph}
Take B18: the k2 in the assay with Caspase-9 was 19 M⁻¹ s⁻¹.

B19: Cbz-Asp-Glu-Val-AAsp-CH═CH-CONHCH2-4-F-Ph (peptide)
peptide: Cbz-DEV[AAsp]-{CH═CH‑CONHCH2‑4‑F‑Ph}
Turning to B19, the k2 in the assay with Caspase-3 was 2.1e+06 M⁻¹ s⁻¹; in the assay with Caspase-6, 4400 M⁻¹ s⁻¹; in the assay with Caspase-7 it was 329000 M⁻¹ s⁻¹; with Caspase-8, 85100 M⁻¹ s⁻¹; with Caspase-9, 900 M⁻¹ s⁻¹; with Caspase-10, 37700 M⁻¹ s⁻¹.
